# Measurements published in US11369662B2 (The Medical College of Wisconsin, Inc., priority 2014, dated 2022).
# Assays:
# CXCR4(Y12A) = target: T1, CXCR4(Y12A) (Homo sapiens, UniProt P61073, Y12A); assay: Calcium flux in CHO-K1 cells, FLAG-tagged CXCR4(Y12A); assay type: cell-based; conditions: relative to wildtype CXCR4
# T1 construct: expressed in transfected cells; host or cells: CHO-K1 stably expressing Galpha15 (transient)
# Protocol: Cell culture. Chinese hamster ovary K1 (CHO-K1) cells, stably transfected with the Gα15 gene in pcDNA3.1+, were cultured in a 1:1 mixture of Dulbecco's modified Eagle medium (DMEM) with Glutamax (Gibco):F12 nutrient mixture (Gibco) supplemented with 10% (w/v) fetal bovine serum (FBS) (Gibco). Stable expression of the Gα15 transgene was maintained by further supplementing the growth medium with 700 μg ml^−1 geneticin (Gibco).
# Transfections. For transient transfections with the Flag-CXCR4 WT and N-terminally mutated constructs, the CHO-K1 Gα15 stable cells were lifted using 0.25% (v/v) trypsin-EDTA (Gibco), and 2×10^6 cells were re-plated onto 10 cm culture dishes. […] The cells were transfected 24 hours later using the Mirus TransIT-CHO Transfection Kit according to the manufacturers protocol, with the following exceptions: the amount of CHO transfection reagent was scaled up to 4 μl μg^−1 of DNA in the transfection mixtures, and the amount of CHO mojo reagent was scaled up to 1 μl μg^−1 of DNA in the mixtures. […]
# Calcium flux. […] Fluorescence was measured at 310 K using a FlexStation2 Microplate Reader with excitation and emission wavelengths at 485 nm and 515 nm, respectively. […] CXCR4 variants with EC50 or maximum calcium response values more than three standard deviations from the mean CXCR4WT quantities were deemed significant.
# U-937 cells = assay: Agarose microdroplet assay of U-937 migration; assay type: cell-based; conditions: 18-24 h, serum-containing media
# Protocol: Agarose microdroplet assay. The agarose microdroplet assay was performed to determine U-937 cellular migration, as previously described. 0.5×10^6 cells/ml U-937 target cells were harvested and washed in HBSS. Cells were spun at 2,000 rpm and were transferred to a graduated 15 ml glass conical tube. The cell concentration was adjusted in agarose medium, prepared from 2% low melting temperature Seaplaque agarose and medium containing 15% FBS, using a 1:4 volume-to-volume dilution. A 1 μl agarose droplet containing 1-10^5 target cells was placed in the center of each well of a 96-well flat-bottom tissue culture plate, in triplicate, using a gastight 0.05 ml Hamilton syringe (Hamilton Company, Reno, Nev.). Droplets were allowed to harden at 4° C. for 20 min. 200 μl chilled test media was applied to each well. […] The plate was incubated for 18-24 h at 37° C. and 5% CO2. Following incubation, the radius of each droplet was determined and target cell migration was measured at four directional points 900 from one another, using an inverted light microscope equipped with a gridded eyepiece, at 40× total magnification. Percent inhibition of each sample was quantified. The plate was incubated for an additional 24 h to measure recovery, and viability was determined by trypan blue exclusion.
# Agarose microdroplet assay. The agarose microdroplet assay was performed to determine U-937 cellular migration, as previously described {AdeCXCL121an, 1980 #1609}. 0.5×10^6 cells/ml U-937 target cells were harvested and washed in HBSS. Cells were spun at 2,000 rpm and were transferred to a graduated 15 ml glass conical tube. […] Following incubation, the radius of each droplet was determined and target cell migration was measured at four directional points 900 from one another, using an inverted light microscope equipped with a gridded eyepiece, at 40× total magnification. Percent inhibition of each sample was quantified. The plate was incubated for an additional 24 h to measure recovery, and viability was determined by trypan blue exclusion.
# CXCR41-38 = target: T2, CXCR41-38 (Homo sapiens, UniProt P61073, C28A); assay: Binding of CXCL12 variants to CXCR41-38 by 2D NMR chemical shift perturbation; conditions: nonlinear fitting of chemical shift perturbations, quadratic binding equation; read-out: Kd (affinity for CXCR41-38)
# T2 construct: comprising the first 38 amino acids of CXCR4 preceded by a residual GlyMet dipeptide tag; made in house
# Protocol: Total peptide additions differed for individual peptide titrations but ranged from 0-160 equivalencies. Spectra were processed using in-house scripts and chemical shift tracking was performed using CARA software. […] For a given interaction, residues with the largest chemical shift perturbations were fitted individually.
# T1 sequence (P61073 whole entry Y12A): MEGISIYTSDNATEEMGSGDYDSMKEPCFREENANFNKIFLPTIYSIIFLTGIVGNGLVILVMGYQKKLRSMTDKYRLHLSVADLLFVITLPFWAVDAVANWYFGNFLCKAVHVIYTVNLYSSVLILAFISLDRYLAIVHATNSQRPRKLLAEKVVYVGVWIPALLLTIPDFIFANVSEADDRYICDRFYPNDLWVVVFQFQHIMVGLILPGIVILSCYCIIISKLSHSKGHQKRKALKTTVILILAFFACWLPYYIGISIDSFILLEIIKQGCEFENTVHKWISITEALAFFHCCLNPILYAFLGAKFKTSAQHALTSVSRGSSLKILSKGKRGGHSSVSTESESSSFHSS
# T2 sequence (P61073 1-38 C28A): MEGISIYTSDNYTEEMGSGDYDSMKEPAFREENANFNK
Substance,reduction of potency (calcium response) (CXCR4(Y12A)) [fold],maximal inhibition of U-937 cell migration (U-937 cells) [%],Kd (CXCR41-38) [nM]
"CXCL12WT: wild type CXCL12 (stromal cell-derived factor-1/SDF-1), SEQ ID NO:1",3,40.1±18,–
CXCL122: constitutively dimeric variant of CXCL12 containing L36C/A65C mutations,–,–,900 ± 300
